The results in this text go back to paper PMC12691273.

First the molecules themselves.
B1: chicken forkhead box O1 (FOXO1) wild-type [chicken] / Ran protein [chicken (endogenous in granulosa cells)] (parent)
chain 1: MAEAPQLVDIDPDFEPLPRPRSCTWPLPRPEFNPPSSATSSPAPSCGGQPDGAAAAGAAVAVAASGALSADFISNLCLVEESEDFALPPAAAAPPESAACRCGDFSAPEAGCRLHPPGPPPVPPVPPAVAALSPGPVAGQPRKSSSSRRNAWGNLSYADLITKAIESSPEKRLTLSQIYEWMVKSVPYFKDKGDSNSSAGWKNSIRHNLSLHSKFIRVQNEGTGKSSWWMLNPEGGKSGKSPRRRAASMDNNSKFAKSRGRAAKKKASLQSGQEGNGDSPGSQFSKWPASPSSHSNDDFDNWSTFRPRTSSNASTISGRLSPILPEQDDLGDGDVHSMVYPSSATKMTSTLPSLSEMSSSENMENLLDNLNLLSPNTSMTVSTQSSSAALMQQTPGYSFASSTTSICSPNPDYRKFTYAQASMNSLPQIPMQTLQDSKSSYGSMSQFNCPAGLLKELLTSDSPPHNDILASVDTGVSQAGGRALGQGVLMVTNSVMPTYGNQPPHNKMMNPNARPHQGHNQPTPAVNGRALSHTVNPMSHTSCLNRLSTVKTSLQVPMSHQMQMNAMNPYAPVNSCNGYGRVGIVSLHQEKLPSDLDDMLIERLDCDMESIIRNDLMDGETLDFNFDSVLPNQSFQHSVKTTTHSWVSG
chain 2: not shown

The variants in this assay derive from B1. Nature of the assay: co-immunoprecipitation (IP FOXO1, WB Ran), band quantification. Particulars: with Ran protein [chicken (endogenous in granulosa cells)].
Where [1] appears, read: with 740-Y-P, n = 3, read off a plot.
The mark [2] stands for this setting: with Ly294002, n = 3, read off a plot.

On to chain 1 S311A, for which the response worked out at 1.3 under setting [1] and 0.33 under setting [2].
As to chain 1 S248A, the response by setting is: under setting [1], 1.2; under setting [2], 0.28.
